The values that follow come from patent publication US20150307590A1 (GOVERNORS OF THE UNIVERSITY OF ALBERTA, published 2015).

Assay [1] has as its target T1, human IL-28R alpha subunit (human, UniProt Q8IU57 21-228, limits assumed).
T1 construct: also called IL28R1; IL-28R1
T1 sequence: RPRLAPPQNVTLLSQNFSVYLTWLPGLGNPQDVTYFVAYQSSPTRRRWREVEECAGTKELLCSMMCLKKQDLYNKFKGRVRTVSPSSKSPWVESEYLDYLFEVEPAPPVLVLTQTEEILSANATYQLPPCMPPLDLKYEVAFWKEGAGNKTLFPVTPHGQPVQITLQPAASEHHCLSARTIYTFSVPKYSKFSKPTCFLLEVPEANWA
Kind of assay: ELISA (right panel). (An ELISA detects its analyte on a solid surface through an enzyme-linked reagent.)

Assay [2] addresses T1, human IL-28R alpha subunit. Kind of assay: Biacore assay (left panel), n=6. Background: SPR reads the build-up and loss of mass on a sensor chip optically.

With LLKDCKCRSRLFPRTWDLRQ (also called 28pep15) [Peptide 15 (IL28BT-2)], in assay [1], the binding result was “binds”. On the same count and under the same terms, the entry for LLKDCRCHSRLFPRTWDLRQ (also called 28pep16) [Peptide 16 (IL28AT-2)] is “binds”; for ELQAFKRAKDALEESLLL (also called 28pep2; Pep2) [Peptide 2 (IL28-1)] it is “binds”; for EATADTDPALGDVLDQPL (also called 28pep18) [Peptide 18 (IL28BT-3)] it is “binds”. Consider KLKNWSCSSPVFPGNWDLRL (also called 28pep17; p17) [Peptide 17 (IL29T-2)], for which, in assay [1], the binding result is on record as “binds”. On the same count and under the same terms, the entry for ELASFKKARDALEESLKL (also called 28pep1; Pep1) [Peptide 1 (IL29-1)] is “binds”.

B1: human IL-29 (ligand)
chain: GPVPTSKPTTTGKGCHIGRFKSLSPQELASFKKARDALEESLKLKNWSCSSPVFPGNWDLRLLQVRERPVALEAELALTLKVLEAAAGPALEDVLDQPLHTLHHILSQLQACIQPQPTAGPRPRGRLHHWLHRLQEAPKKESAGCLEASVTFNLFRLLTRDLKYVADGNLCLRTSTHPEST
notes: also called IFN-λ1; interferon-lambda-1
On to B1, for which the binding result in assay [2] is listed as “binds”.

B2: human IL-28A (ligand)
chain: VPVARLHGALPDARGCHIAQFKSLSPQELQAFKRAKDALEESLLLKDCRCHSRLFPRTWDLRQLQVRERPMALEAELALTLKVLEATADTDPALVDVLDQPLHTLHHILSQFRACIQPQPTAGPRTRGRLHHWLYRLQEAPKKESPGCLEASVTFNLFRLLTRDLNCVASGDLCV
notes: also called IFN-λ2; interferon-lambda-2
On to B2, for which, in assay [2], the binding result is listed as “binds”.

B3: human IL-28B (ligand)
chain: VPVARLRGALPDARGCHIAQFKSLSPQELQAFKRAKDALEESLLLKDCKCRSRLFPRTWDLRQLQVRERPVALEAELALTLKVLEATADTDPALGDVLDQPLHTLHHILSQLRACIQPQPTAGPRTRGRLHHWLHRLQEAPKKESPGCLEASVTFNLFRLLTRDLNCVASGDLCV
notes: also called IFN-λ3; interferon-lambda-3
On to B3, for which, in assay [2], the binding result is listed as “binds”.
